# In doi:10.1101/123679 (bioRxiv, 2017):
# T1: mRFP-RTN1 (Arabidopsis reticulon 1) (Arabidopsis thaliana, UniProt Q9SUR3 1-275)
# T1 sequence (looked up): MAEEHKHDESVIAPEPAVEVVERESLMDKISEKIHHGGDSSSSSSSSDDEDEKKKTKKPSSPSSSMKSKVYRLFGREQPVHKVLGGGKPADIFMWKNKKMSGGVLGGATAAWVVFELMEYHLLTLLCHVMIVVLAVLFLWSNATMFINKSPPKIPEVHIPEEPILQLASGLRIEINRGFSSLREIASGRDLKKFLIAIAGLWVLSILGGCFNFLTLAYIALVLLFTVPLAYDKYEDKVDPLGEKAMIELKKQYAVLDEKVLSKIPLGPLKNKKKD
# T2: RTN19 fused to mRFP (Arabidopsis reticulon 19, 3BETAHSD/D2) (Arabidopsis thaliana, UniProt Q67ZE1 1-564)
# T2 sequence (looked up): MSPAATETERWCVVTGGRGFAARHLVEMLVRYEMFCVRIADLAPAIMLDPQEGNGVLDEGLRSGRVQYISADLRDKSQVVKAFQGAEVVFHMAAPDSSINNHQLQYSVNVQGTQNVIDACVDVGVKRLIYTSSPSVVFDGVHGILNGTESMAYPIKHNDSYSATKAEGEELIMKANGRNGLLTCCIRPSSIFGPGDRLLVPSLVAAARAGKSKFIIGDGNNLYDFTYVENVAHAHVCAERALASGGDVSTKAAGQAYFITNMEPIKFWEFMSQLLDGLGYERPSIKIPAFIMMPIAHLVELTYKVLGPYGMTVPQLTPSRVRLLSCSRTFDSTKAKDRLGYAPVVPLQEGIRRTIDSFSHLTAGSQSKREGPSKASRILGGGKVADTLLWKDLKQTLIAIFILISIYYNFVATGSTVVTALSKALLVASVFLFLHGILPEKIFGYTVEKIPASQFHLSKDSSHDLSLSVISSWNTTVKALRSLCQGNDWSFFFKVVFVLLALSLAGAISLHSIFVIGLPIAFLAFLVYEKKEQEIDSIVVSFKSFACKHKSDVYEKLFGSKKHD
# T3: RTN2 fused to mRFP (Arabidopsis reticulon 2) (Arabidopsis thaliana, UniProt Q9SUT9 1-271)
# T3 sequence (looked up): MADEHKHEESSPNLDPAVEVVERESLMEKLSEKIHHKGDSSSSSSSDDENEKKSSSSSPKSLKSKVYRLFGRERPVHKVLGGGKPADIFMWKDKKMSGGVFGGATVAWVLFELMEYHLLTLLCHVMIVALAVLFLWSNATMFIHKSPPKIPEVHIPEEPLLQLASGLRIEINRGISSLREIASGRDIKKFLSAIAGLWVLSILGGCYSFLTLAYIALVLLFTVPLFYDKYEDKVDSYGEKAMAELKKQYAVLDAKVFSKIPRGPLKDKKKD
# T4: RTN3 fused to mRFP (Arabidopsis reticulon 3) (Arabidopsis thaliana, UniProt Q9SH59 1-255)
# T4 sequence (looked up): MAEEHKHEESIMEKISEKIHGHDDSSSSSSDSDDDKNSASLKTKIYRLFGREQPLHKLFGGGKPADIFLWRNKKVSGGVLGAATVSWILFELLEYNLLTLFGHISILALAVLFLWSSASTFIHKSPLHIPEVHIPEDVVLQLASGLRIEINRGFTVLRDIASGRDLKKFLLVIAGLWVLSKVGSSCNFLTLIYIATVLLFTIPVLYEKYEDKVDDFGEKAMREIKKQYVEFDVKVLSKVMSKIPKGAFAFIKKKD
# B1: GFP-RTN20 (Arabidopsis reticulon 20) (natural protein, Arabidopsis thaliana, UniProt A9X4U2 1-561, looked up)
# chain: MDEDSVHGDSHLKTCVVLGGRGFIGRSLVSRLLRLGNWTVRVADSGHTLHLDESDSLLEDALSSGRASYHCVDVRDKPQIVKVTEGSYVVFYMGATDLRSHDYFDCYKVIVQGTRNVISACRESGVRKLIYNSTADVVFDGSQPIRDGDESLRRPLKFQSMLTDFKAQAEALIKLANNRDGLLTCALRSSIVFGPGDTEFVPFLVNLAKSGYAKFILGSGENISDFTYSENVSHAHICAVKALDSQMEFVAGKEFFITNLKPVRFWDFVSHIVEGLGYPRPSIKLPVRLVLYVFSLLKWTHEKEGLGSNYDTAHQYALLASSTRTFNCNAAKKHLGYTPVVTLEDGIASTLQWFSRDLEKSDDTIIQSTADQLLGCGKVADILLWRNEKKTFVSFLVLNLFYYWFFFSGNTFTSSAAQLLFIFAVALYGVSFVPSKIFGFQVNKIPPWRFEISESAVRDLSSDIVVVWNQGVRSFKSLSSGGDWIKFFKIAGSLYLLKLIVSRSLAAFLFTVMSFSFTGFFIYEQYELELYHLARIFVECLTFIKRMVIPVSDASSKPMFM
# Legend:
# Assay in all cases: FRET or BRET
# [1] = molecular target: T1, mRFP-RTN1 (Arabidopsis reticulon 1)
# [2] = molecular target: T2, RTN19 fused to mRFP (Arabidopsis …)
# [3] = molecular target: T3, RTN2 fused to mRFP (Arabidopsis …)
# [4] = molecular target: T4, RTN3 fused to mRFP (Arabidopsis …)
binder,measurement,setting,value
B1,fluorescence lifetime of the GFP donor (FRET-FLIM),[1],2.21 ns
same,fluorescence lifetime of the GFP donor (FRET-FLIM),[2],2.2 ns
same,fluorescence lifetime of the GFP donor (FRET-FLIM),[3],2.2 ns
same,fluorescence lifetime of the GFP donor (FRET-FLIM),[4],2.2 ns
